From the supplement of paper PMC9112550, “Optimization of the antimicrobial peptide Bac7 by deep mutational scanning” (BMC Biology, 2022)

Tested on: Escherichia coli TOP10
Test: shrunken log2 fold change of peptide-encoding DNA abundance (4.5 h post-induction vs induction); higher = less antimicrobial activity (less host growth inhibition)
Details: time post-induction: 4.5 h; library: site-saturation at positions 5, 18, 19, 20
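Also: peptides expressed intracellularly from a pBAD plasmid library in pooled LB shake-flask culture, induced with 0.3% L-arabinose, DNA abundance read by NGS, three biological replicates, DESeq2 with apeglm shrinkage.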

Sequence: RRIRPRPPRLPRPRPRPSREPRP
- shrunken log2 fold change: 0.113

Sequence: RRIRPRPPRLPRPRPRPQVHPRP
- shrunken log2 fold change: -0.0018

Sequence: RRIRQRPPRLPRPRPRPMINPRP
- shrunken log2 fold change: -0.0423

Sequence: RRIRVRPPRLPRPRPRPSMPPRP
- shrunken log2 fold change: -0.343

Sequence: RRIRKRPPRLPRPRPRPCMVPRP
- shrunken log2 fold change: 0.309

Sequence: RRIRQRPPRLPRPRPRPFERPRP
- shrunken log2 fold change: 0.0412

Sequence: RRIRSRPPRLPRPRPRPWRLPRP
- shrunken log2 fold change: 0.0899

Sequence: RRIRLRPPRLPRPRPRPPASPRP
- shrunken log2 fold change: 0.561

Sequence: RRIRSRPPRLPRPRPRPSYQPRP
- shrunken log2 fold change: -0.434

Sequence: RRIRTRPPRLPRPRPRPIIHPRP
- shrunken log2 fold change: -0.937

Sequence: RRIRVRPPRLPRPRPRPTVAPRP
- shrunken log2 fold change: 0.37

Sequence: RRIRRRPPRLPRPRPRPNAVPRP
- shrunken log2 fold change: 0.23

Sequence: RRIRNRPPRLPRPRPRPQASPRP
- shrunken log2 fold change: -0.187

Sequence: RRIRLRPPRLPRPRPRPAFGPRP
- shrunken log2 fold change: 0.359

Sequence: RRIRKRPPRLPRPRPRPNHFPRP
- shrunken log2 fold change: -2.08

Sequence: RRIRDRPPRLPRPRPRPGLIPRP
- shrunken log2 fold change: 0.0516

Sequence: RRIRRRPPRLPRPRPRPHNHPRP
- shrunken log2 fold change: -0.237

Sequence: RRIRQRPPRLPRPRPRPKSSPRP
- shrunken log2 fold change: 0.0321

Sequence: RRIRARPPRLPRPRPRPIKKPRP
- shrunken log2 fold change: -0.00732

Sequence: RRIRARPPRLPRPRPRPDNKPRP
- shrunken log2 fold change: -0.24

Sequence: RRIRMRPPRLPRPRPRPKSRPRP
- shrunken log2 fold change: 0.0662

Sequence: RRIRCRPPRLPRPRPRPDWRPRP
- shrunken log2 fold change: 0.243

Sequence: RRIRARPPRLPRPRPRPAPCPRP
- shrunken log2 fold change: 0.638

Sequence: RRIRDRPPRLPRPRPRPWHPPRP
- shrunken log2 fold change: -0.0206

Sequence: RRIRRRPPRLPRPRPRPDESPRP
- shrunken log2 fold change: 0.037

Sequence: RRIRCRPPRLPRPRPRPYIVPRP
- shrunken log2 fold change: -0.168

Sequence: RRIRPRPPRLPRPRPRPKRIPRP
- shrunken log2 fold change: -0.155

Sequence: RRIRIRPPRLPRPRPRPTTHPRP
- shrunken log2 fold change: -0.441

Sequence: RRIRTRPPRLPRPRPRPEHPPRP
- shrunken log2 fold change: 0.716

Sequence: RRIRQRPPRLPRPRPRPGVGPRP
- shrunken log2 fold change: 0.18

Sequence: RRIRRRPPRLPRPRPRPWPSPRP
- shrunken log2 fold change: 0.0392

Sequence: RRIRCRPPRLPRPRPRPIYRPRP
- shrunken log2 fold change: -0.318

Sequence: RRIRSRPPRLPRPRPRPTNLPRP
- shrunken log2 fold change: -0.215

Sequence: RRIRPRPPRLPRPRPRPIARPRP
- shrunken log2 fold change: -0.0116

Sequence: RRIRARPPRLPRPRPRPNPNPRP
- shrunken log2 fold change: 0.187

Sequence: RRIRFRPPRLPRPRPRPDVAPRP
- shrunken log2 fold change: 0.239

Sequence: RRIRYRPPRLPRPRPRPECGPRP
- shrunken log2 fold change: -0.114

Sequence: RRIRLRPPRLPRPRPRPALDPRP
- shrunken log2 fold change: 0.396

Sequence: RRIRIRPPRLPRPRPRPLSGPRP
- shrunken log2 fold change: -0.0874

Sequence: RRIRNRPPRLPRPRPRPQIIPRP
- shrunken log2 fold change: -0.106

Sequence: RRIRARPPRLPRPRPRPKRIPRP
- shrunken log2 fold change: 0.122

Sequence: RRIRSRPPRLPRPRPRPEGSPRP
- shrunken log2 fold change: 0.223

Sequence: RRIRIRPPRLPRPRPRPWTIPRP
- shrunken log2 fold change: -0.0831

Sequence: RRIRVRPPRLPRPRPRPVGQPRP
- shrunken log2 fold change: 0.0877

Sequence: RRIRMRPPRLPRPRPRPPNRPRP
- shrunken log2 fold change: 1.08

Sequence: RRIRARPPRLPRPRPRPEWFPRP
- shrunken log2 fold change: 0.0641

Sequence: RRIRVRPPRLPRPRPRPCFRPRP
- shrunken log2 fold change: -0.164

Sequence: RRIRFRPPRLPRPRPRPRTYPRP
- shrunken log2 fold change: -0.794

Sequence: RRIRARPPRLPRPRPRPMYVPRP
- shrunken log2 fold change: -0.0341

Sequence: RRIRMRPPRLPRPRPRPNCMPRP
- shrunken log2 fold change: 0.183

Sequence: RRIRPRPPRLPRPRPRPCMDPRP
- shrunken log2 fold change: -0.561

Sequence: RRIRYRPPRLPRPRPRPIIEPRP
- shrunken log2 fold change: -0.643

Sequence: RRIRCRPPRLPRPRPRPGSFPRP
- shrunken log2 fold change: -0.22

Sequence: RRIRDRPPRLPRPRPRPCAQPRP
- shrunken log2 fold change: 1.19

Sequence: RRIRDRPPRLPRPRPRPTQSPRP
- shrunken log2 fold change: 0.439

Sequence: RRIRYRPPRLPRPRPRPGHWPRP
- shrunken log2 fold change: -0.135

Sequence: RRIRTRPPRLPRPRPRPMHDPRP
- shrunken log2 fold change: -0.00302

Sequence: RRIRIRPPRLPRPRPRPESMPRP
- shrunken log2 fold change: 0.0174

Sequence: RRIRNRPPRLPRPRPRPHRWPRP
- shrunken log2 fold change: 0.0666

Sequence: RRIRTRPPRLPRPRPRPGPLPRP
- shrunken log2 fold change: 0.185

Sequence: RRIRQRPPRLPRPRPRPVCYPRP
- shrunken log2 fold change: -0.636

Sequence: RRIRHRPPRLPRPRPRPLSKPRP
- shrunken log2 fold change: -0.746

Sequence: RRIRGRPPRLPRPRPRPWRDPRP
- shrunken log2 fold change: 0.0475

Sequence: RRIRQRPPRLPRPRPRPEVYPRP
- shrunken log2 fold change: -0.0137

Sequence: RRIRNRPPRLPRPRPRPYKMPRP
- shrunken log2 fold change: -0.0115

Sequence: RRIRPRPPRLPRPRPRPNGGPRP
- shrunken log2 fold change: -0.305

Sequence: RRIRWRPPRLPRPRPRPHVWPRP
- shrunken log2 fold change: 0.126

Sequence: RRIRMRPPRLPRPRPRPYSSPRP
- shrunken log2 fold change: -0.115

Sequence: RRIRSRPPRLPRPRPRPPAMPRP
- shrunken log2 fold change: 0.344

Sequence: RRIRQRPPRLPRPRPRPACMPRP
- shrunken log2 fold change: -0.294

Sequence: RRIRRRPPRLPRPRPRPYKGPRP
- shrunken log2 fold change: 0.0251

Sequence: RRIRNRPPRLPRPRPRPNELPRP
- shrunken log2 fold change: 0.106

Sequence: RRIRGRPPRLPRPRPRPKKSPRP
- shrunken log2 fold change: 0.834

Sequence: RRIRTRPPRLPRPRPRPLVWPRP
- shrunken log2 fold change: 0.44

Sequence: RRIRARPPRLPRPRPRPPTGPRP
- shrunken log2 fold change: 0.663

Sequence: RRIRGRPPRLPRPRPRPDRCPRP
- shrunken log2 fold change: 0.286

Sequence: RRIRMRPPRLPRPRPRPHDKPRP
- shrunken log2 fold change: 0.0701

Sequence: RRIRQRPPRLPRPRPRPNMKPRP
- shrunken log2 fold change: -0.336

Sequence: RRIRYRPPRLPRPRPRPVHSPRP
- shrunken log2 fold change: -0.155

Sequence: RRIRNRPPRLPRPRPRPEAYPRP
- shrunken log2 fold change: 0.0274

Sequence: RRIRPRPPRLPRPRPRPDKWPRP
- shrunken log2 fold change: -0.0254

Sequence: RRIRWRPPRLPRPRPRPQFCPRP
- shrunken log2 fold change: -0.0503

Sequence: RRIRARPPRLPRPRPRPVCWPRP
- shrunken log2 fold change: 0.894

Sequence: RRIRCRPPRLPRPRPRPGVKPRP
- shrunken log2 fold change: -0.0157

Sequence: RRIRKRPPRLPRPRPRPCFKPRP
- shrunken log2 fold change: 0.0163

Sequence: RRIRGRPPRLPRPRPRPKLAPRP
- shrunken log2 fold change: 1.67

Sequence: RRIRARPPRLPRPRPRPFASPRP
- shrunken log2 fold change: 0.0388

Sequence: RRIRRRPPRLPRPRPRPADEPRP
- shrunken log2 fold change: 2.06

Sequence: RRIRNRPPRLPRPRPRPGSDPRP
- shrunken log2 fold change: -0.0348

Sequence: RRIRRRPPRLPRPRPRPPNFPRP
- shrunken log2 fold change: 0.0782

Sequence: RRIRKRPPRLPRPRPRPGINPRP
- shrunken log2 fold change: 0.369

Sequence: RRIRSRPPRLPRPRPRPMYFPRP
- shrunken log2 fold change: -0.229

Sequence: RRIRVRPPRLPRPRPRPYWLPRP
- shrunken log2 fold change: -0.411

Sequence: RRIRIRPPRLPRPRPRPCFKPRP
- shrunken log2 fold change: -1.04

Sequence: RRIRTRPPRLPRPRPRPYSRPRP
- shrunken log2 fold change: 0.0299

Sequence: RRIRCRPPRLPRPRPRPPHTPRP
- shrunken log2 fold change: 0.824

Sequence: RRIRARPPRLPRPRPRPINYPRP
- shrunken log2 fold change: -0.239

Sequence: RRIRWRPPRLPRPRPRPPKGPRP
- shrunken log2 fold change: 0.61

Sequence: RRIRGRPPRLPRPRPRPEHQPRP
- shrunken log2 fold change: 0.529

Sequence: RRIRGRPPRLPRPRPRPNFQPRP
- shrunken log2 fold change: 0.122

Sequence: RRIRWRPPRLPRPRPRPKKNPRP
- shrunken log2 fold change: 0.341

Sequence: RRIRRRPPRLPRPRPRPLPSPRP
- shrunken log2 fold change: 0.752

Sequence: RRIRLRPPRLPRPRPRPKEYPRP
- shrunken log2 fold change: -0.567

Sequence: RRIRERPPRLPRPRPRPNGKPRP
- shrunken log2 fold change: -0.0394

Sequence: RRIRHRPPRLPRPRPRPKWGPRP
- shrunken log2 fold change: 0.177

Sequence: RRIRQRPPRLPRPRPRPDAEPRP
- shrunken log2 fold change: 0.105

Sequence: RRIRNRPPRLPRPRPRPNRMPRP
- shrunken log2 fold change: -0.385

Sequence: RRIRWRPPRLPRPRPRPSECPRP
- shrunken log2 fold change: 0.0183

Sequence: RRIRMRPPRLPRPRPRPVYDPRP
- shrunken log2 fold change: -0.399

Sequence: RRIRVRPPRLPRPRPRPFTAPRP
- shrunken log2 fold change: -0.317

Sequence: RRIRDRPPRLPRPRPRPMHIPRP
- shrunken log2 fold change: -0.11

Sequence: RRIRVRPPRLPRPRPRPGYLPRP
- shrunken log2 fold change: -0.14

Sequence: RRIRPRPPRLPRPRPRPFIKPRP
- shrunken log2 fold change: -0.926

Sequence: RRIRRRPPRLPRPRPRPACTPRP
- shrunken log2 fold change: 0.181

Sequence: RRIRKRPPRLPRPRPRPWQVPRP
- shrunken log2 fold change: -0.0062

Sequence: RRIRMRPPRLPRPRPRPHGAPRP
- shrunken log2 fold change: 0.0098

Sequence: RRIRTRPPRLPRPRPRPIPVPRP
- shrunken log2 fold change: -0.412

Sequence: RRIRHRPPRLPRPRPRPWFRPRP
- shrunken log2 fold change: -0.00674

Sequence: RRIRGRPPRLPRPRPRPNCAPRP
- shrunken log2 fold change: 0.811

Sequence: RRIRARPPRLPRPRPRPPSWPRP
- shrunken log2 fold change: 0.736

Sequence: RRIRHRPPRLPRPRPRPRFLPRP
- shrunken log2 fold change: 0.0768

Sequence: RRIRRRPPRLPRPRPRPRMTPRP
- shrunken log2 fold change: 0.295

Sequence: RRIRPRPPRLPRPRPRPLEWPRP
- shrunken log2 fold change: -0.00787

Sequence: RRIRWRPPRLPRPRPRPHGHPRP
- shrunken log2 fold change: -0.0213

Sequence: RRIRGRPPRLPRPRPRPQKFPRP
- shrunken log2 fold change: -0.0494

Sequence: RRIRVRPPRLPRPRPRPITKPRP
- shrunken log2 fold change: 0.0714

Sequence: RRIRPRPPRLPRPRPRPSVLPRP
- shrunken log2 fold change: 0.0488

Sequence: RRIRERPPRLPRPRPRPNFFPRP
- shrunken log2 fold change: -0.0705

Sequence: RRIRRRPPRLPRPRPRPCYFPRP
- shrunken log2 fold change: -0.0239

Sequence: RRIRARPPRLPRPRPRPQIQPRP
- shrunken log2 fold change: 0.503

Sequence: RRIRIRPPRLPRPRPRPNHLPRP
- shrunken log2 fold change: -0.844

Sequence: RRIRNRPPRLPRPRPRPPLAPRP
- shrunken log2 fold change: 0.697

Sequence: RRIRGRPPRLPRPRPRPTRTPRP
- shrunken log2 fold change: 1.32

Sequence: RRIRVRPPRLPRPRPRPISVPRP
- shrunken log2 fold change: -0.131

Sequence: RRIRERPPRLPRPRPRPKEAPRP
- shrunken log2 fold change: 0.324

Sequence: RRIRWRPPRLPRPRPRPYFDPRP
- shrunken log2 fold change: -0.811

Sequence: RRIRCRPPRLPRPRPRPDKTPRP
- shrunken log2 fold change: -0.0581

Sequence: RRIRLRPPRLPRPRPRPHLIPRP
- shrunken log2 fold change: -0.151

Sequence: RRIRWRPPRLPRPRPRPEPRPRP
- shrunken log2 fold change: 0.886

Sequence: RRIRHRPPRLPRPRPRPDSDPRP
- shrunken log2 fold change: 0.0112

Sequence: RRIRNRPPRLPRPRPRPKCQPRP
- shrunken log2 fold change: 0.0753

Sequence: RRIRQRPPRLPRPRPRPIRMPRP
- shrunken log2 fold change: -0.291

Sequence: RRIRMRPPRLPRPRPRPYSEPRP
- shrunken log2 fold change: 0.171

Sequence: RRIRERPPRLPRPRPRPEECPRP
- shrunken log2 fold change: -0.000921

Sequence: RRIRERPPRLPRPRPRPSEQPRP
- shrunken log2 fold change: -0.0297

Sequence: RRIRQRPPRLPRPRPRPQYFPRP
- shrunken log2 fold change: -0.00133

Sequence: RRIRTRPPRLPRPRPRPGVRPRP
- shrunken log2 fold change: 0.272

Sequence: RRIRKRPPRLPRPRPRPHYQPRP
- shrunken log2 fold change: -0.101

Sequence: RRIRPRPPRLPRPRPRPFLMPRP
- shrunken log2 fold change: -0.349

Sequence: RRIRPRPPRLPRPRPRPVEFPRP
- shrunken log2 fold change: 0.068
